31 proteins from article PMC12861225 can be followed below.

The chains are these.
B1: Tissue-nonspecific alkaline phosphatase (TNALP): N230Q/N303Q (protein)
parent chain: MISPFLVLAIGTCLTNSLVPEKEKDPKYWRDQAQETLKYALELQKLNTNVAKNVIMFLGDGMGVSTVTAARILKGQLHHNPGEETRLEMDKFPFVALSKTYNTNAQVPDSAGTATAYLCGVKANEGTVGVSAATERSRCNTTQGNEVTSILRWAKDAGKSVGIVTTTRVNHATPSAAYAHSADRDWYSDNEMPPEALSQGCKDIAYQLMHNIRDIDVIMGGGRKYMYPKNKTDVEYESDEKARGTRLDGLDLVDTWKSFKPRYKHSHFIWNRTELLTLDPHNVDYLLGLFEPGDMQYELNRNNVTDPSLSEMVVVAIQILRKNPKGFFLLVEGGRIDHGHHEGKAKQALHEAVEMDRAIGQAGSLTSSEDTLTVVTADHSHVFTFGGYTPRGNSIFGLAPMLSDTDKKPFTAILYGNGPGYKVVGGERENVSMVDYAHNNYQAQSAVPLRHETHGGEDVAVFSKGPMAHLLHGVHEQNYVPHVMAYAACIGANLGHCAPASSAGSLAAGPLLLALALYPLSVLF
B2: Tissue-nonspecific alkaline phosphatase (TNALP): N303Q/N430D (protein)
parent chain: B1 parent chain
B3: Tissue-nonspecific alkaline phosphatase (TNALP): N140Q/N303Q (protein)
parent chain: B1 parent chain
B4: Tissue-nonspecific alkaline phosphatase (TNALP): N140Q/N230Q (protein)
parent chain: B1 parent chain
B5: Tissue-nonspecific alkaline phosphatase (TNALP): N230Q/N430D (protein)
parent chain: B1 parent chain
B6: Tissue-nonspecific alkaline phosphatase (TNALP): N271Q/N430D (protein)
parent chain: B1 parent chain
B7: Tissue-nonspecific alkaline phosphatase (TNALP): N140Q/N430D (protein)
parent chain: B1 parent chain
B8: Tissue-nonspecific alkaline phosphatase (TNALP): N271Q/N303Q (protein)
parent chain: B1 parent chain
B9: Tissue-nonspecific alkaline phosphatase (TNALP): N430D (protein)
parent chain: B1 parent chain
B10: Tissue-nonspecific alkaline phosphatase (TNALP): N140Q (protein)
parent chain: B1 parent chain
B11: Tissue-nonspecific alkaline phosphatase (TNALP): N303Q (protein)
parent chain: B1 parent chain
B12: Tissue-nonspecific alkaline phosphatase (TNALP): N230Q (protein)
parent chain: B1 parent chain
B13: Tissue-nonspecific alkaline phosphatase (TNALP): N230Q/N271Q/N303Q (protein)
parent chain: B1 parent chain
B14: Tissue-nonspecific alkaline phosphatase (TNALP): N230Q/N271Q/N430D (protein)
parent chain: B1 parent chain
B15: Tissue-nonspecific alkaline phosphatase (TNALP): N140Q/N230Q/N430D (protein)
parent chain: B1 parent chain
B16: Tissue-nonspecific alkaline phosphatase (TNALP): N271Q (protein)
parent chain: B1 parent chain
B17: Tissue-nonspecific alkaline phosphatase (TNALP): heterodimeric N271Q/N303Q (protein)
parent chain: B1 parent chain
B18: Tissue-nonspecific alkaline phosphatase (TNALP): heterodimeric N271Q/N430D (protein)
parent chain: B1 parent chain
B19: Tissue-nonspecific alkaline phosphatase (TNALP): heterodimeric N303Q/N430D (protein)
parent chain: B1 parent chain
B20: Tissue-nonspecific alkaline phosphatase (TNALP): heterodimeric N230Q/N430D (protein)
parent chain: B1 parent chain
B21: Tissue-nonspecific alkaline phosphatase (TNALP): heterodimeric N303Q (protein)
parent chain: B1 parent chain
B22: Tissue-nonspecific alkaline phosphatase (TNALP): heterodimeric N140Q/N430D (protein)
parent chain: B1 parent chain
B23: Tissue-nonspecific alkaline phosphatase (TNALP): heterodimeric N230Q/N303Q (protein)
parent chain: B1 parent chain
B24: Tissue-nonspecific alkaline phosphatase (TNALP): heterodimeric N430D (protein)
parent chain: B1 parent chain
B25: Tissue-nonspecific alkaline phosphatase (TNALP): heterodimeric N230Q (protein)
parent chain: B1 parent chain
B26: Tissue-nonspecific alkaline phosphatase (TNALP): heterodimeric N140Q/N303Q (protein)
parent chain: B1 parent chain
B27: Tissue-nonspecific alkaline phosphatase (TNALP): heterodimeric N230Q/N271Q (protein)
parent chain: B1 parent chain
B28: Tissue-nonspecific alkaline phosphatase (TNALP): heterodimeric N140Q/N271Q (protein)
parent chain: B1 parent chain
B29: Tissue-nonspecific alkaline phosphatase (TNALP): heterodimeric N271Q (protein)
parent chain: B1 parent chain
B30: Tissue-nonspecific alkaline phosphatase (TNALP): heterodimeric N140Q/N230Q (protein)
parent chain: B1 parent chain
B31: Tissue-nonspecific alkaline phosphatase (TNALP): heterodimeric N140Q (protein)
parent chain: B1 parent chain

The nature of the first series: pNPP activity of supernatant, normalised to total protein; homodimeric double mutants. Conditions: glycan lost; control: wild type.
As to B1, the “enzymatic_activity, other: specific activity” value (shortened to “enzymatic_activity, other”) is “no change, 9.5 ± 6.5 vs 13.6 ± 6.6”.
As to B2, the “enzymatic_activity, other” value is “decreases, 4.7 ± 4 vs 13.6 ± 6.6”.
B3: the “enzymatic_activity, other” value is “decreases, 3.5 ± 2.7 vs 13.6 ± 6.6”.
The same measure, in the same setting: to B4 belongs “decreases, 3.8 ± 3.9 vs 13.6 ± 6.6”; to B5, “no change, 9 ± 6 vs 13.6 ± 6.6”; to B6, “decreases, 4.3 ± 3.4 vs 13.6 ± 6.6”.
The same measure, in the same setting: to B7 belongs “decreases, 7 ± 4.3 vs 13.6 ± 6.6”; to B8, “decreases, 3.9 ± 2.8 vs 13.6 ± 6.6”.

The next series in a line: pNPP activity of supernatant, normalised to total protein; homodimeric single mutants. Conditions: glycan lost; control: wild type.
With B9, the “enzymatic_activity, other” value is listed as “no change”.
Take B10: the “enzymatic_activity, other” value was “no change”.
As for B11, the “enzymatic_activity, other” value is “no change”.
As to B12, the “enzymatic_activity, other” value was “no change”.

The nature of another series: remaining pNPP activity after 15 min at 56 °C; homodimeric. Conditions: glycan lost; control: wild type.
For B2, the “stability_or_folding, other: remaining activity” value is on record as “increases, 47 ± 13 vs 23 ± 4”.
On to B6, for which the “stability_or_folding, other: remaining activity” value is “increases, 63 ± 5 vs 23 ± 4”.
Take B8: the “stability_or_folding, other: remaining activity” value was “decreases, 12 ± 1 vs 23 ± 4”.

Another series is described as follows: pNPP activity of supernatant; triple-site mutants. Conditions: glycan lost; control: wild type.
Take B13: the enzymatic_activity result is reported as “abolishes”.
Regarding B14, the enzymatic_activity entry is “abolishes”.
For B15, the enzymatic_activity result is on record as “abolishes”.

Another series in a line: anti-Flag capillary immunoblot of Flag-purified medium, pooled n=6. Conditions: glycan lost; control: wild type. (In general: A western blot detects proteins with antibodies after separation by electrophoresis.)
B1: the “expression_or_secretion, fold_change” value is given as “decreases, 0.4 vs 1.0”.
With B2, the “expression_or_secretion, fold_change” value is “decreases, 0.7 vs 1.0”.
Take B9: the “expression_or_secretion, fold_change” value is given as “decreases, 0.5 vs 1.0”.
Consider B10, for which the “expression_or_secretion, fold_change” value is recorded as “decreases, 0.4 vs 1.0”.
On the same count and under the same terms, to B3 belongs “decreases, 0.4 vs 1.0”; to B16, “decreases, 0.4 vs 1.0”.
Consider B11, for which the “expression_or_secretion, fold_change” value was “decreases, 0.5 vs 1.0”.
With B4, the “expression_or_secretion, fold_change” value is “decreases, 0.5 vs 1.0”.
Turning to B5, the “expression_or_secretion, fold_change” value is “decreases, 0.6 vs 1.0”.
With B6, the “expression_or_secretion, fold_change” value was “decreases, 0.7 vs 1.0”.
On to B7, for which the “expression_or_secretion, fold_change” value was “decreases, 0.6 vs 1.0”.
As to B12, the “expression_or_secretion, fold_change” value is recorded as “decreases, 0.5 vs 1.0”.
Still for that read-out and setting: to B8 belongs “decreases, 0.4 vs 1.0”.

A short description of another series: remaining pNPP activity after 56 °C; mutant:WT plasmid 1:1. Conditions: glycan lost; control: wild type.
On to B17, for which the stability_or_folding entry is given as “no change”.
Still for that read-out and setting: to B18 belongs “no change”; to B19, “no change”.

A short description of another series: pNPP activity; mutant:WT plasmid 1:1 (heterodimers not confirmed). The following applies: glycan lost; control: wild type plasmid only.
B17: the “enzymatic_activity, percent_of_wt” value is recorded as “decreases”.
Still for that read-out and setting: to B20 belongs “no change”; to B21, “decreases”.
As for B22, the “enzymatic_activity, percent_of_wt” value is “decreases”.
With B18, the “enzymatic_activity, percent_of_wt” value was “decreases”.
Still for that read-out and setting: to B23 belongs “decreases”; to B24, “decreases”.
Still for that read-out and setting: to B19 belongs “decreases”.
Consider B25, for which the “enzymatic_activity, percent_of_wt” value is “decreases”.
On to B26, for which the “enzymatic_activity, percent_of_wt” value is listed as “decreases”.
Turning to B27, the “enzymatic_activity, percent_of_wt” value is listed as “decreases”.
Consider B28, for which the “enzymatic_activity, percent_of_wt” value was “decreases”.
B29: the “enzymatic_activity, percent_of_wt” value was “decreases”.
On the same count and under the same terms, to B30 belongs “decreases”; to B31, “decreases”.

The nature of a further series: SYPRO Orange thermal shift, pooled purified protein. Conditions: glycan lost; control: wild type.
For B1, the “stability_or_folding, Tm” value is “no change, 54.1 vs 54.5”.
As for B2, the “stability_or_folding, Tm” value is on record as “increases, 55.3, 70.1 vs 54.5”.
Turning to B9, the “stability_or_folding, Tm” value is “increases, 55.7 vs 54.5”.
B10: the “stability_or_folding, Tm” value was “no change, 54.9 vs 54.5”.
As for B16, the “stability_or_folding, Tm” value is given as “no change, 54.5 vs 54.5”.
With B11, the “stability_or_folding, Tm” value was “decreases, 53.7 vs 54.5”.
Consider B4, for which the “stability_or_folding, Tm” value is “no change, 54.9 vs 54.5”.
Regarding B5, the “stability_or_folding, Tm” value is “increases, 55.7 vs 54.5”.
On to B6, for which the “stability_or_folding, Tm” value is “increases, 55.3, 69.7 vs 54.5”.
In the case of B7, the “stability_or_folding, Tm” value is listed as “increases, 56.5 vs 54.5”.
Still for that read-out and setting: to B12 belongs “no change, 54.5 vs 54.5”.
With B8, the “stability_or_folding, Tm” value was “decreases, 52.9 vs 54.5”.

The nature of another series: weak anion-exchange HPLC with activity-based detection. Conditions: glycan lost; control: wild type.
Regarding B1, the “other: HPLC isoform profile” value was “no change”.
Regarding B2, the “other: HPLC isoform profile” value is “changes”.
Turning to B9, the “other: HPLC isoform profile” value is given as “no change”.
On to B10, for which the “other: HPLC isoform profile” value is reported as “no change”.
Still for that read-out and setting: to B3 belongs “no change”; to B16, “no change”.
On the same count and under the same terms, to B11 belongs “no change”; to B5, “changes”; to B6, “changes”.
Consider B7, for which the “other: HPLC isoform profile” value is given as “changes”.
In the case of B12, the “other: HPLC isoform profile” value is “no change”.
With B8, the “other: HPLC isoform profile” value is given as “changes”.
